The values that follow are results of earlier work, collected in publication PMC3045386.

The target in this data set is Ran (Homo sapiens) (UniProt P62826).

In the case of RanBP3 (from UniProt Q9H6Z4), the Kd is 10 µM.
